# Results published in paper PMC11975286, “Functional dissection of the conserved C. elegans LEM-3/ANKLE1 nuclease reveals a crucial requirement for the LEM-like and GIY-YIG domains for DNA bridge processing”.
# T1: LEM-3(241-704) (Caenorhabditis elegans, UniProt G5EGA3 241-704)
# T1 sequence: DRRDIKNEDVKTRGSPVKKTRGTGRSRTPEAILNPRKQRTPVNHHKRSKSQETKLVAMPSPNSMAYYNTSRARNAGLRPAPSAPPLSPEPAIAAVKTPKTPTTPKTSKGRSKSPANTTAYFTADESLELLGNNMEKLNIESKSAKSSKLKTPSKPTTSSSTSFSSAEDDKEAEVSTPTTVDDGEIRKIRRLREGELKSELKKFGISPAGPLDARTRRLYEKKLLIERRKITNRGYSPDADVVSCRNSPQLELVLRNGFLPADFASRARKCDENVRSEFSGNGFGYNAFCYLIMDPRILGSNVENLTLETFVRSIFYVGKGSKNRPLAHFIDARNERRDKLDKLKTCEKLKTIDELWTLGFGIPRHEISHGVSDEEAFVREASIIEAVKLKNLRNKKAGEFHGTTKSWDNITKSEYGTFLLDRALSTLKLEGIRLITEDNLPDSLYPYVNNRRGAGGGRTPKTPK
# T2: LEM-3(485-704) (Caenorhabditis elegans, UniProt G5EGA3 485-704)
# T2 sequence: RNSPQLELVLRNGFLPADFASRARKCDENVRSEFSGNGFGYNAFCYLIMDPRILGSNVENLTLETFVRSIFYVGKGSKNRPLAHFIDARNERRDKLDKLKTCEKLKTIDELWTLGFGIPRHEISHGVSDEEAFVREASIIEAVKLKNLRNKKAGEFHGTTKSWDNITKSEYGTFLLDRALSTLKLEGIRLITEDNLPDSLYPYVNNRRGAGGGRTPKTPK
# Assays:
# LEM-3(241-704) = target: T1, LEM-3(241-704); assay: EMSA; no divalent metal, 100 mM Na+; 0.13 nM HJ; cooperative (Hill) fit; 10 mM Tris-HCl pH 7.5, 100 mM NaCl, 5% glycerol, 5 ng/ul poly(dI-dC), 4 C, 1 h; 8.3 nM HJ-X0-1 (0.13 nM for Kd); 6% native PAGE, 0.5x TBE, 4 C; settings: protein: recombinant; tags: His-GST removed by TEV; label: 5'-Cy5 on X0-1; four-way junction of 4 strands, 1 copy each
# LEM-3(485-704) = target: T2, LEM-3(485-704); assay: EMSA; no divalent metal, 100 mM Na+; 10 mM Tris-HCl pH 7.5, 100 mM NaCl, 5% glycerol, 5 ng/ul poly(dI-dC), 4 C, 1 h; 8.3 nM HJ-X0-1 (0.13 nM for Kd); 6% native PAGE, 0.5x TBE, 4 C; settings: protein: recombinant; tags: His-GST removed by TEV; label: 5'-Cy5 on X0-1; four-way junction of 4 strands, 1 copy each
binder,measurement,setting,value
HJ-X0-1 (immobile Holliday junction) (structured_DNA) DNA 1: ACGCTGCCGAATTCTACCAGTGCCTTGCTAGGACATCTTTGCCCACCTGCAGGTTCACCC DNA 2: GGGTGAACCTGCAGGTGGGCAAAGATGTCCATCTGTTGTAATCGTCAAGCTTTATGCCGT DNA 3: ACGGCATAAAGCTTGACGATTACAACAGATCATGGAGCTGTCTAGAGGATCCGACTATCG DNA 4: CGATAGTCGGATCCTCTAGACAGCTCCATGTAGCAAGGCACTGGTAGAATTCGGCAGCGT,Kd,LEM-3(241-704),~40 nM
same,binding result,LEM-3(485-704),no binding
